Data reported in patent US20260273042A1.
pKd: −log10 of the molar value.

What was measured:
[1] = target: BG505 SOSIP MD39 E2p (HIV (strain BG505) fused to Bacillus stearothermophilus E2p); assay: SPR, captured particle, Fab analyte
[2] = target: BG505_SOSIP_MD39_2JD6 (HIV (strain BG505) fused to Pyrococcus furiosus ferritin); assay: SPR, captured particle, Fab analyte
[3] = target: BG505_SOSIP.D664_JS_3mut_mC (SOSIP-3MUT) (HIV (strain BG505)); assay: SPR, trimer ligand, Fab analyte [panel A]
[4] = target: BG505_SOSIP.D664_JS_10mut_mC (SOSIP-10MUT) (HIV (strain BG505)); assay: SPR, trimer ligand, Fab analyte [panel A]
[5] = target: BG505_SOSIP.D664_JS_5mut_mC (SOSIP-5MUT) (HIV (strain BG505)); assay: SPR, trimer ligand, Fab analyte [panel A]
[6] = target: BG505_SOSIP_D664_MD39_mC (BG505 SOSIP-MD39 or MD39) (HIV (strain BG505)); assay: SPR, trimer ligand, Fab analyte [panel A]
[7] = target: MD39-10MUT; assay: SPR, trimer ligand, Fab analyte [panel A]
[8] = target: BG505 SOSIP T332N gp140 (soluble trimer) (HIV (strain BG505)); assay: SPR, trimer ligand, Fab analyte [panel A]
[9] = target: BG505_SOSIP_D664_MD39_mC (BG505 SOSIP-MD39 or MD39) (HIV (strain BG505)); assay: SPR, trimer ligand, Fab analyte [panel A]; remark: listed apart in the source
[10] = target: BG505_SOSIP_D664_MD39_mC (BG505 SOSIP-MD39 or MD39) (HIV (strain BG505)); assay: SPR, monovalent interaction
[11] = target: BG505_SOSIP_D664_MD39_mC (BG505 SOSIP-MD39 or MD39) (HIV (strain BG505)); assay: SPR (ligand and analyte not given)
[12] = target: BG505_SOSIP_D664_olio6_mC (HIV (strain BG505)); assay: SPR, trimer ligand, Fab analyte [panel A]
[13] = target: BG505 SOSIP T332N gp140 (soluble trimer) (HIV (strain BG505)); assay: SPR, monovalent interaction
[14] = target: BG505_SOSIP_D664_olio6_mC (HIV (strain BG505)); assay: SPR (ligand and analyte not given)
[15] = target: BG505 MD37; assay: SPR (ligand and analyte not given)
[16] = target: BG505 MD39C; assay: SPR (ligand and analyte not given)
[17] = target: BG505_SOSIP.D664_JS_10mut_mC (SOSIP-10MUT) (HIV (strain BG505)); assay: ELISA, His-tagged trimer captured, mAb titrated [panel B]
[18] = target: BG505_SOSIP_D664_MD39_mC (BG505 SOSIP-MD39 or MD39) (HIV (strain BG505)); assay: as above
[19] = target: BG505 SOSIP T332N gp140 (soluble trimer) (HIV (strain BG505)); assay: as above
[20] = target: BG505_SOSIP.D664_JS_3mut_mC (SOSIP-3MUT) (HIV (strain BG505)); assay: SPR, IgG ligand, trimer analyte [panel A]
[21] = target: BG505_SOSIP.D664_JS_10mut_mC (SOSIP-10MUT) (HIV (strain BG505)); assay: SPR, IgG ligand, trimer analyte [panel A]
[22] = target: BG505_SOSIP.D664_JS_5mut_mC (SOSIP-5MUT) (HIV (strain BG505)); assay: SPR, IgG ligand, trimer analyte [panel A]
[23] = target: MD39-10MUT; assay: SPR, IgG ligand, trimer analyte [panel A]
[24] = target: BG505 SOSIP T332N gp140 (soluble trimer) (HIV (strain BG505)); assay: SPR, IgG ligand, trimer analyte [panel A]
[25] = target: BG505_SOSIP_D664_MD39_mC (BG505 SOSIP-MD39 or MD39) (HIV (strain BG505)); assay: SPR, IgG ligand, trimer analyte [panel A]
[26] = target: BG505 SOSIP T332N gp140 (soluble trimer) (HIV (strain BG505)); assay: SPR, IgG ligand, trimer analyte [panel A]; remark: listed apart in the source
[27] = target: BG505 MD53; assay: SPR (ligand and analyte not given)
[28] = target: BG505 SOSIP T332N gp140 (soluble trimer) (HIV (strain BG505)); assay: SPR (ligand and analyte not given)
[29] = target: BG505_SOSIP_D664_olio6_mC (HIV (strain BG505)); assay: SPR, IgG ligand, trimer analyte [panel A]
[30] = target: CD4 on human CD4+ T cells (human) (UniProt P01730); assay: flow cytometry, human CD4+ T cells stained with trimer labelled with two fluorescent probes
[31] = target: BG505_MD39_CP1.2_GRSF7_qLoops1 (HIV (strain BG505)); assay: SPR, Fab analyte
[32] = target: BG505-gp120 9MUTB (7MUT+N135R/Q328M) (HIV (strain BG505)); assay: SPR, monomeric gp120
[33] = target: BG505_SOSIP.D664_JS_3mut_mC (SOSIP-3MUT) (HIV (strain BG505)); assay: SPR, trimer ligand, Fab analyte (1-to-1 fit relatively poor) [panel A]
[34] = target: BG505_SOSIP.D664_JS_10mut_mC (SOSIP-10MUT) (HIV (strain BG505)); assay: as above
[35] = target: BG505_SOSIP_D664_MD39_mC (BG505 SOSIP-MD39 or MD39) (HIV (strain BG505)); assay: as above

PGT128 Fab was tested, and the pKd [1] was 8.22, the pKd [2] was 8.30 and the pKd [3] was 8.52. For the same substance, the pKd [4] was 8.52, the pKd [5] was 8.30 and the pKd [6] was 7.92. The pKd [7] was 8.52, the pKd [8] was 8.10 and the pKd [9] was 7.96.
With VRC01 (antibody) the pKd [10] was 6.91 and the pKd [11] was 6.91.
3BNC60 Fab was tested, and the pKd [12] was 6.92 and the pKd [9] was 6.72.
With VRC01-Fab the pKd [1] was > 9.00, the pKd [2] was > 9.00 and the pKd [3] was 7.00. For the same substance, the pKd [4] was 6.94, the pKd [5] was 6.71 and the pKd [7] was 6.85. The pKd [9] was 6.91.
PGT128 (antibody) was tested, and the pKd [10] was 7.92, the pKd [13] was 8.10 and the pKd [14] was 7.96. It also gave a pKd [15] of 7.72 and a pKd [16] of 7.85.
PGDM1400 (antibody) showed a pKd [10] of 7.44, a pKd [13] of 8.30 and an EC50 (read off the curve) [17] of 0.04 µg/mL. The EC50 (read off the curve) [18] was 0.04 µg/mL, the EC50 (read off the curve) [19] was 0.04 µg/mL and the pKd [20] was 9.00. The pKd [21] was 9.00, the pKd [22] was 9.00 and the pKd [23] was 8.22. It also gave a pKd [24] of 8.70, a pKd [25] of 7.92 and a pKd [26] of 8.22. For the same substance, the pKd [27] was 7.96, the pKd [11] was 7.92 and the pKd [28] was 8.22.
Work on PGT145 (antibody) yielded a pKd [10] of 7.22, a pKd [20] of 8.52 and a pKd [21] of 8.52. It also gave a pKd [22] of 8.52, a pKd [29] of 7.51 and a pKd [25] of 7.70. The pKd [14] was 7.51 and the pKd [11] was 7.70.
Substance “BG505 SOSIP T332N gp140 (soluble trimer) (other; other documents disagree on this pair)” has a percentage of cells in the double-positive population [30] of 99.1%.
Work on PGT151 (antibody) yielded a pKd [10] of 7.96, an EC50 (read off the curve) [17] of 0.03 µg/mL and an EC50 (read off the curve) [18] of 0.03 µg/mL. For the same substance, the pKd [11] was 7.96.
3BNC60 (antibody) showed a pKd [14] of 6.92, a pKd [15] of 6.72 and a pKd [16] of 6.84. It also gave a pKd [11] of 6.92.
Work on PGT145-Fab yielded a pKd [1] of 7.39, a pKd [2] of 7.31 and a pKd [31] of 7.59.
PGT121 (antibody) gave a pKd [32] of 8.82.
With PGT151 Fab the pKd [1] was 7.60, the pKd [2] was 7.31 and the pKd [9] was 7.96. The pKd [33] was 8.05, the pKd [34] was 7.70 and the pKd [35] was 7.96.
